Results taken from patent publication US20210238276A1 (INTEGRAL MOLECULAR, published 2021).
Changes are numbered by the printed parent chain.

Legend:
Test in all cases: flow cytometry, alanine-scan library in HEK-293T
hsGLUT4 R265A = biological target: T1, hsGLUT4 R265A (human, UniProt P14672 1-509)
T1 sequence: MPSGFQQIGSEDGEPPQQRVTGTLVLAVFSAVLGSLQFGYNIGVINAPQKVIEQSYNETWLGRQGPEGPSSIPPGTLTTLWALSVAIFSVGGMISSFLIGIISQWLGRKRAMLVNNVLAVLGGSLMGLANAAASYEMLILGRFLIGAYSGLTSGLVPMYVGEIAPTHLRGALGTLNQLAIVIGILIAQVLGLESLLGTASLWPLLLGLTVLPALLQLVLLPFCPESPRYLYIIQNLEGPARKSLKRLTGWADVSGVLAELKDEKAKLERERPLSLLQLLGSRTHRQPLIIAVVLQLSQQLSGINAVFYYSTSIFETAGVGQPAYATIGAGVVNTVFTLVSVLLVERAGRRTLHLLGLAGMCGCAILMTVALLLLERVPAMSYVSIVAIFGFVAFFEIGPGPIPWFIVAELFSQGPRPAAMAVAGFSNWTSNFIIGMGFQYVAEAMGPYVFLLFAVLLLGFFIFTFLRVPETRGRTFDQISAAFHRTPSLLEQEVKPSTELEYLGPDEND
Outline: (§1)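 HEK-293T cells expressing individual GLUT4 alanine mutants were stained 48 h post-transfection with anti-GLUT4 scFv MAbs (2 μg/ml), then biotinylated secondary and streptavidin-PerCP, and read by high-throughput flow cytometry. Where used, cytochalasin B (10 uM final) was given for 30 min before and during primary antibody staining.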

hsGLUT4 I163A = biological target: T2, hsGLUT4 I163A (human, UniProt P14672 1-509)
T2 sequence: T1 sequence with I163A, A265R
Outline: as §1

hsGLUT4 Q298A = biological target: T3, hsGLUT4 Q298A (human, UniProt P14672 1-509)
T3 sequence: T1 sequence with A265R, Q298A
Outline: as §1

hsGLUT4 Q295A = biological target: T4, hsGLUT4 Q295A (human, UniProt P14672 1-509)
T4 sequence: T1 sequence with A265R, Q295A
Outline: as §1

1F8 (antibody)
% of binding to wild type GLUT4 (hsGLUT4 R265A): 101%
% of binding to wild type GLUT4 (hsGLUT4 I163A): 91%
% of binding to wild type GLUT4 (hsGLUT4 Q298A): 87%
% of binding to wild type GLUT4 (hsGLUT4 Q295A): 81%

B1: AB108 (Fc fusion)
scFv: ALTQPSSVSANLGGTVKITCSGSSGSYGWYQQKAPGSAPVTLIYRNDKRPSDIPSRFSGSESGSTGTLTITGVQAEDEAVYFCGGYDSSAGYAAFGAGTTLTVLGQSSRSSGGGGSSGGGGSAVTLDESGGGLQTPGGALSLVCKASGFTFSSHGMGWVRQAPGKGLEWVGSISTGRYTFYAPAVKGRATISRDNGQSTLRLQLNNLRAEDTGTYYCTKCAGLNGCGGGEIDAWGHGTEVIVSS
notes: Bivalent scFv-Fc; also called MAb AB108; not shown: Fc fragment of human IgG1, cloned in frame with the scFv
% of binding to wild type GLUT4 (hsGLUT4 R265A): 111%
% of binding to wild type GLUT4 (hsGLUT4 I163A): 90%
% of binding to wild type GLUT4 (hsGLUT4 Q298A): 78%
% of binding to wild type GLUT4 (hsGLUT4 Q295A): 113%

B2: AB111 (Fc fusion)
scFv: ALTQPSSVSANPGETVKITCSGSGSWYGWFQQKSPGSAPVTVIYSNDKRPSDIPSRFSGSKSGSTSTLTITGVQVEDEAVYYCGNWDIFGAGTTLTVLGQSSRSSGGGGSSGGGGSAVTLDESGGGLQTPGGALSLVCKASGFTFSSHGMGWVRQAPGKGLEWVASISTGRYTFYAPAVKGRATISRDNGQSTVRLQLNNLRAEDTATYYCTKCAGLNGCGGGEIDAWGHGTEVIVSS
notes: Bivalent scFv-Fc; also called MAb AB111; not shown: Fc fragment of human IgG1, cloned in frame with the scFv
% of binding to wild type GLUT4 (hsGLUT4 R265A): 143%
% of binding to wild type GLUT4 (hsGLUT4 I163A): 87%
% of binding to wild type GLUT4 (hsGLUT4 Q298A): 145%
% of binding to wild type GLUT4 (hsGLUT4 Q295A): 138%

B3: AB101 (scFv)
scFv: ALTQPSSVSANPGETVKITCSGSSNSYGWYQQKSPGSAPVTVIYYNDKRPSDIPSRFSGSKSDSTHTLTITGVRAEDEAVYFCGSYDSTYVGIFGAGTTLTVLGQSSRSSGGGGSSGGGGSAVTLDESGGGLQTPGGTLSLVCKASGFTFSSNAMGWVRQAPGKGLEWVAGISSDGRYTKYGSAVKGRATISRDNGQSTVRLQLNNLRAEDTGTYFCAKAFGNNYRRIYAGQIDAWGHGTEVIVSS
notes: Chicken-derived clone used as a control; the four lead clones were tested as scFv-human IgG1 Fc; also called MAb AB101
% of binding to wild type GLUT4 (hsGLUT4 R265A): 91%
% of binding to wild type GLUT4 (hsGLUT4 I163A): 115%
% of binding to wild type GLUT4 (hsGLUT4 Q298A): 107%
% of binding to wild type GLUT4 (hsGLUT4 Q295A): 102%
